This assay concerns the target Fusion protein of Nipah virus (F-clamp) (Nipah virus). Briefly: SEC. A general note: In gel filtration, larger molecules generally elute earlier.

With Fusion protein of Nipah virus (F-clamp), the stoichiometry N (commonly a count of units in the complex or per binding partner) turned out to be 3.

The values are drawn from doi:10.1101/2022.01.11.475947.
